Measured values reported in IntAct's records for PubMed 16452984.

B1: Rap guanine nucleotide exchange factor 4 (Mus musculus), Q9EQZ6-3 (parent)
chain: MVAAHAAHSQSSAEWIACLDKRPLERSSEDVDIIFTRLKGVKAFEKFHPNLLRQICLCGYYENLEKGITLFRQGDIGTNWYAVLAGSLDVKVSETSSHQDAVTICTLGIGTAFGESILDNTPRHATIVTRESSELLRIEQEDFKALWEKYRQYMAGLLAPPYGVMETGSNNDRIPDKENVPSEKILRAGKILRIAILSRAPHMIRDRKYHLKTYRQCCVGTELVDWMIQQTSCVHSRTQAVGMWQVLLEDGVLNHVDQERHFQDKYLFYRFLDDEREDAPLPTEEEKKECDEELQDTMLLLSQMGPDAHMRMILRKPPGQRTVDDLEIIYDELLHIKALSHLSTTVKRELAGVLIFESHAKGGTVLFNQGEEGTSWYIILKGSVNVVIYGKGVVCTLHEGDDFGKLALVNDAPRAASIVLREDNCHFLRVDKEDFNRILRDVEANTVRLKEHDQDVLVLEKVPAGNRAANQGNSQPQQKYTVMSGTPEKILEHFLETIRLEPSLNEATDSVLNDFVMMHCVFMPNTQLCPALVAHYHAQPSQGTEQERMDYALNNKRRVIRLVLQWAAMYGDLLQEDDVAMAFLEEFYVSVSDDARMMAAFKEQLPELEKIVKQISEDAKAPQKKHKVLLQQFNTGDERAQKRQPIRGSDEVLFKVYCIDHTYTTIRVPVAASVKEVISAVADKLGSGEGLIIVKMNSGGEKVVLKSNDVSVFTTLTINGRLFACPREQFDSLTPLPEQEGPTTGTVGTFELMSSKDLAYQMTTYDWELFNCVHELELIYHTFGRHNFKKTTANLDLFLRRFNEIQFWVVTEVCLCSQLSKRVQLLKKFIKIAAHCKEYKNLNSFFAIVMGLSNVAVSRLALTWEKLPSKFKKFYAEFESLMDPSRNHRAYRLTAAKLEPPLIPFMPLLIKDMTFTHEGNKTFIDNLVNFEKMRMIANTARTVRYYRSQPFNPDAAQANKNHQDVRSYVRQLNVIDNQRTLSQMSHRLEPRRP

Variants of: B1
Conditions: with rap1b_human RAP1B

Row | effect of a mutation on the interaction | Variant
1 | decreasing interaction strength | R886A
2 | decreasing interaction strength | H452A
